The first data set relates to T1, CC[C@H](C)[C@H](NC(=O)[C@H](CCC(=O)O)NC(=O)[C@H](CNc1ccc([N+](=O)[O-])c2nonc12)NC(=O)[C@H](Cc1ccc(O)cc1)NC(=O)[C@@H](NC(=O)[C@H](CCC(=O)O)NC(=O)[C@H](CCC(=O)O)NC(=O)[C@H](CCC(=O)O)NC(C)=O)[C@@H](C)CC)C(=O)N[C@@H](CCC(=O)O)C(=O)N[C@@H](C)C(N)=O.
T1 construct: purchased Invitrogen
Briefly: purified protein, by the assay type. Type of data set: biochemical. The note with it: other: Src kinase; Lck-SH2 20 μM; varying peptide; pH 7.5; 30.0 °C. As to the method: The fluorescence change was monitored as a function of time. Control assays in the absence of Lck-SH2 were also performed.
The final Src concentration was 30 nM for peptide 13 and 15 nM for peptide 14.
With Src (Homo sapiens), the Km amounted to 32 ± 0.5 µM and the Vmax came out at 1.4 ± 0.1 µmol/min/mg.

A further data set has as its target GST-Lck-SH2 (UniProt P06239). Briefly: fluorescence change on Src-catalysed phosphorylation in presence of GST-Lck-SH2; value in parentheses, amide-capped peptide 13.
Conditions: not given
As for “phosphotyrosine version of peptide 13, Ac-Glu-Glu-Glu-Ile-pTyr-Dap(NBD)-Glu-Ile-Glu-Ala-amide”, the Fold change in fluorescence intensity was found to be 1.6 fold.

The target in another data set is GST-Lck-SH2 (UniProt P06239). The experiment in a line: fluorescence change on Src-catalysed phosphorylation in presence of GST-Lck-SH2; value in parentheses, amide-capped peptide 14.
GST-Lck-SH2, sequence (P06239 127-224): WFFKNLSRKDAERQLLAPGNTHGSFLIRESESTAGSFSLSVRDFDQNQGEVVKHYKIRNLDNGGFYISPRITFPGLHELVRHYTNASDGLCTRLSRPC
Conditions: not given
Regarding “phosphorylated peptide 14, Ac-Glu-Glu-Glu-Ile-pTyr-Gly-Glu-Ile-Dab(dapoxyl)-Ala-amide”, the Fold change in fluorescence intensity amounted to 7.2 fold.

The next data set concerns the target GST-Lck-SH2 (UniProt P06239). The experiment in a line: fluorescence change on Src-catalysed phosphorylation in presence of GST-Lck-SH2 (1.25 µM peptide, 5 µM Lck-SH2, 12 nM Src, 1 mM ATP).
Conditions: not given
As for “Src-phosphorylated library peptide with Dap-7 (Cascade Yellow on Dap) at P+2 of Ac-Glu-Glu-Glu-Ile-Tyr-Gly-Glu-Ile-Glu-Ala”, the Fold change in fluorescence intensity turned out to be 1.8 fold. With “Src-phosphorylated library peptide with Dab-6 (NBD on Dab) at P+2 of Ac-Glu-Glu-Glu-Ile-Tyr-Gly-Glu-Ile-Glu-Ala”, the Fold change in fluorescence intensity amounted to 1.4 fold. In the case of “Src-phosphorylated library peptide with Dap-7 (Cascade Yellow on Dap) at P+4 of Ac-Glu-Glu-Glu-Ile-Tyr-Gly-Glu-Ile-Glu-Ala”, the Fold change in fluorescence intensity was determined as 1.4 fold. On to “Src-phosphorylated library peptide with Dab-7 (Cascade Yellow on Dab) at P+3 of Ac-Glu-Glu-Glu-Ile-Tyr-Gly-Glu-Ile-Glu-Ala”, for which the Fold change in fluorescence intensity is 2.1 fold. On the same count and under the same terms, under “Src-phosphorylated library peptide with Dab-5 (dapoxyl on Dab) at P+3 of Ac-Glu-Glu-Glu-Ile-Tyr-Gly-Glu-Ile-Glu-Ala” stands 3.6 fold; under “Src-phosphorylated library peptide with Dap-6 (NBD on Dap) at P+3 of Ac-Glu-Glu-Glu-Ile-Tyr-Gly-Glu-Ile-Glu-Ala”, 1.3 fold; under “Src-phosphorylated library peptide with Dab-5 (dapoxyl on Dab) at P+1 of Ac-Glu-Glu-Glu-Ile-Tyr-Gly-Glu-Ile-Glu-Ala”, 2.4 fold. “Src-phosphorylated library peptide with Dab-7 (Cascade Yellow on Dab) at P+4 of Ac-Glu-Glu-Glu-Ile-Tyr-Gly-Glu-Ile-Glu-Ala”: the Fold change in fluorescence intensity is 1.6 fold. Regarding “Src-phosphorylated library peptide with Dab-6 (NBD on Dab) at P+4 of Ac-Glu-Glu-Glu-Ile-Tyr-Gly-Glu-Ile-Glu-Ala”, the Fold change in fluorescence intensity is 1.7 fold. Turning to “Src-phosphorylated library peptide with Dap-6 (NBD on Dap) at P+4 of Ac-Glu-Glu-Glu-Ile-Tyr-Gly-Glu-Ile-Glu-Ala”, the Fold change in fluorescence intensity is 1.3 fold. “Src-phosphorylated library peptide with Dab-7 (Cascade Yellow on Dab) at P+2 of Ac-Glu-Glu-Glu-Ile-Tyr-Gly-Glu-Ile-Glu-Ala”: the Fold change in fluorescence intensity turned out to be 1.7 fold.

As for “Src-phosphorylated library peptide with Dap-5 (dapoxyl on Dap) at P+3 of Ac-Glu-Glu-Glu-Ile-Tyr-Gly-Glu-Ile-Glu-Ala”, the Fold change in fluorescence intensity came out at 3.3 fold. “Src-phosphorylated library peptide with Dab-5 (dapoxyl on Dab) at P+2 of Ac-Glu-Glu-Glu-Ile-Tyr-Gly-Glu-Ile-Glu-Ala”: the Fold change in fluorescence intensity turned out to be 1.6 fold.

“Src-phosphorylated library peptide with Dap-7 (Cascade Yellow on Dap) at P+1 of Ac-Glu-Glu-Glu-Ile-Tyr-Gly-Glu-Ile-Glu-Ala”: the Fold change in fluorescence intensity was 1.4 fold.

On to “Src-phosphorylated library peptide with Dap-7 (Cascade Yellow on Dap) at P+3 of Ac-Glu-Glu-Glu-Ile-Tyr-Gly-Glu-Ile-Glu-Ala”, for which the Fold change in fluorescence intensity worked out at 1.6 fold. “Src-phosphorylated library peptide with Dab-6 (NBD on Dab) at P+1 of Ac-Glu-Glu-Glu-Ile-Tyr-Gly-Glu-Ile-Glu-Ala”: the Fold change in fluorescence intensity was determined as 1.3 fold. For “Src-phosphorylated library peptide with Dab-7 (Cascade Yellow on Dab) at P+1 of Ac-Glu-Glu-Glu-Ile-Tyr-Gly-Glu-Ile-Glu-Ala”, the Fold change in fluorescence intensity was 1.5 fold. On the same count and under the same terms, the same measure for “Src-phosphorylated library peptide with Dap-5 (dapoxyl on Dap) at P+4 of Ac-Glu-Glu-Glu-Ile-Tyr-Gly-Glu-Ile-Glu-Ala”: 2.3 fold; for “Src-phosphorylated library peptide with Dap-5 (dapoxyl on Dap) at P+2 of Ac-Glu-Glu-Glu-Ile-Tyr-Gly-Glu-Ile-Glu-Ala”: 2.4 fold. Take “Src-phosphorylated library peptide with Dab-6 (NBD on Dab) at P+3 of Ac-Glu-Glu-Glu-Ile-Tyr-Gly-Glu-Ile-Glu-Ala”: the Fold change in fluorescence intensity came to 1.9 fold.

In another data set the target is GST-Lck-SH2 (UniProt P06239). The experiment in a line: fluorescence change on Src-catalysed phosphorylation in presence of GST-Lck-SH2 (1.25 µM peptide, 5 µM Lck-SH2, 12 nM Src, 1 mM ATP); library peptide with -NH(CH2)2SH.
Conditions: not given
Turning to “Src-phosphorylated library peptide with Dab-5 (dapoxyl on Dab) at P+4 of Ac-Glu-Glu-Glu-Ile-Tyr-Gly-Glu-Ile-Glu-Ala”, the Fold change in fluorescence intensity is 4.1 fold. Same read-out and setting: the same measure for “Src-phosphorylated library peptide with Dap-6 (NBD on Dap) at P+1 of Ac-Glu-Glu-Glu-Ile-Tyr-Gly-Glu-Ile-Glu-Ala”: 1.6 fold.
